Data on four molecules can be found in US20250262210A1 (TRUSTEES OF COLUMBIA UNIVERSITY IN THE CITY OF NEW YORK, published 2025).

T1: LZTR1 R810W-FLAG (human, UniProt Q8N653 1-840)
T1 construct: Stably expressed in U87 cells by lentivirus; also called LZTR1-FLAG-R810W; LZTR1 RW; not shown: FLAG tag
T1 sequence (looked up): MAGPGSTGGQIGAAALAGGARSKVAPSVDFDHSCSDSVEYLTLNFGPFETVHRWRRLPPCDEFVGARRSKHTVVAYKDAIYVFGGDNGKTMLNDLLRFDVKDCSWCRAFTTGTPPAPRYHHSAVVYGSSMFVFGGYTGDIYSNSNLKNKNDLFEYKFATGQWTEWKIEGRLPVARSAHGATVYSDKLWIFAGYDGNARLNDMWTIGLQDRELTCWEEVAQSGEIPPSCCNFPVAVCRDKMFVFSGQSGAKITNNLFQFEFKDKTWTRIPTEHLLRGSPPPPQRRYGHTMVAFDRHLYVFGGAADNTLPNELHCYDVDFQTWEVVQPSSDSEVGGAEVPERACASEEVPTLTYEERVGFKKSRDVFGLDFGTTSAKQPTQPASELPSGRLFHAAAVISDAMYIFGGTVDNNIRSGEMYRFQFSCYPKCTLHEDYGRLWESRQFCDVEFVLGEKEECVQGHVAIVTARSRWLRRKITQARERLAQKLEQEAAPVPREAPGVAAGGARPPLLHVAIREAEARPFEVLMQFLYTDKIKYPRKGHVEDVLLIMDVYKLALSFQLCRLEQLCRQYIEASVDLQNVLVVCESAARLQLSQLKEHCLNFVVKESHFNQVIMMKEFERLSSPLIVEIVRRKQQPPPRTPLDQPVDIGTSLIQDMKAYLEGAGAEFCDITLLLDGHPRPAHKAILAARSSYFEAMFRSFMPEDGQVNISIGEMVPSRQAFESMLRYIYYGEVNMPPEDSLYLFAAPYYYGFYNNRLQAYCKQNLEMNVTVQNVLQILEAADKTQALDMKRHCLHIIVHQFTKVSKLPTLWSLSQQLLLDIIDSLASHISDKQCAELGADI

T2: LZTR1-FLAG (human, UniProt Q8N653 1-840)
T2 construct: Expressed in HEK 293T, HeLa or U87 cells; used as cell lysate; also called LZTR1 wild type-FLAG; LZTR1 WT; not shown: FLAG tag at the C-terminus
T2 sequence (looked up): T1 sequence (looked up) with W810R

B1: VPS16 (other, human, UniProt Q9H269 1-839, looked up)
chain: MDCYTANWNPLGDSAFYRKYELYSMDWDLKEELRDCLVAAAPYGGPIALLRNPWRKEKAASVRPVLDIYSASGMPLASLLWKSGPVVSLGWSAEEELLCVQEDGAVLVYGLHGDFRRHFSMGNEVLQNRVLDARIFHTEFGSGVAILTGAHRFTLSANVGDLKLRRMPEVPGLQSAPSCWTVLCQDRVAHILLAVGPDLYLLDHAACSAVTPPGLAPGVSSFLQMAVSFTYRHLALFTDTGYIWMGTASLKEKLCEFNCNIRAPPKQMVWCSRPRSKERAVVVAWERRLMVVGDAPESIQFVLDEDSYLVPELDGVRIFSRSTHEFLHEVPAASEEIFKIASMAPGALLLEAQKEYEKESQKADEYLREIQELGQLTQAVQQCIEAAGHEHQPDMQKSLLRAASFGKCFLDRFPPDSFVHMCQDLRVLNAVRDYHIGIPLTYSQYKQLTIQVLLDRLVLRRLYPLAIQICEYLRLPEVQGVSRILAHWACYKVQQKDVSDEDVARAINQKLGDTPGVSYSDIAARAYGCGRTELAIKLLEYEPRSGEQVPLLLKMKRSKLALSKAIESGDTDLVFTVLLHLKNELNRGDFFMTLRNQPMALSLYRQFCKHQELETLKDLYNQDDNHQELGSFHIRASYAAEERIEGRVAALQTAADAFYKAKNEFAAKATEDQMRLLRLQRRLEDELGGQFLDLSLHDTVTTLILGGHNKRAEQLARDFRIPDKRLWWLKLTALADLEDWEELEKFSKSKKSPIGYLPFVEICMKQHNKYEAKKYASRVGPEQKVKALLLVGDVAQAADVAIEHRNEAELSLVLSHCTGATDGATADKIQRARAQAQKK
B2: YME1L1 (other, human, UniProt Q96TA2 1-773, looked up)
chain: MFSLSSTVQPQVTVPLSHLINAFHTPKNTSVSLSGVSVSQNQHRDVVPEHEAPSSECMFSDFLTKLNIVSIGKGKIFEGYRSMFMEPAKRMKKSLDTTDNWHIRPEPFSLSIPPSLNLRDLGLSELKIGQIDQLVENLLPGFCKGKNISSHWHTSHVSAQSFFENKYGNLDIFSTLRSSCLYRHHSRALQSICSDLQYWPVFIQSRGFKTLKSRTRRLQSTSERLAETQNIAPSFVKGFLLRDRGSDVESLDKLMKTKNIPEAHQDAFKTGFAEGFLKAQALTQKTNDSLRRTRLILFVLLLFGIYGLLKNPFLSVRFRTTTGLDSAVDPVQMKNVTFEHVKGVEEAKQELQEVVEFLKNPQKFTILGGKLPKGILLVGPPGTGKTLLARAVAGEADVPFYYASGSEFDEMFVGVGASRIRNLFREAKANAPCVIFIDELDSVGGKRIESPMHPYSRQTINQLLAEMDGFKPNEGVIIIGATNFPEALDNALIRPGRFDMQVTVPRPDVKGRTEILKWYLNKIKFDQSVDPEIIARGTVGFSGAELENLVNQAALKAAVDGKEMVTMKELEFSKDKILMGPERRSVEIDNKNKTITAYHESGHAIIAYYTKDAMPINKATIMPRGPTLGHVSLLPENDRWNETRAQLLAQMDVSMGGRVAEELIFGTDHITTGASSDFDNATKIAKRMVTKFGMSEKLGVMTYSDTGKLSPETQSAIEQEIRILLRDSYERAKHILKTHAKEHKNLAEALLTYETLDAKEIQIVLEGKKLEVR
B3: ZC3HC1 (other, human, UniProt Q86WB0 2-502, looked up)
chain: AAPCEGQAFAVGVEKNWGAVVRSPEGTPQKIRQLIDEGIAPEEGGVDAKDTSATSQSVNGSPQAEQPSLESTSKEAFFSRVETFSSLKWAGKPFELSPLVCAKYGWVTVECDMLKCSSCQAFLCASLQPAFDFDRYKQRCAELKKALCTAHEKFCFWPDSPSPDRFGMLPLDEPAILVSEFLDRFQSLCHLDLQLPSLRPEDLKTMCLTEDKISLLLHLLEDELDHRTDERKTTIKLGSDIQVHVTACILSVCGWACSSSLESMQLSLITCSQCMRKVGLWGFQQIESSMTDLDASFGLTSSPIPGLEGRPERLPLVPESPRRMMTRSQDATFSPGSEQAEKSPGPIVSRTRSWDSSSPVDRPEPEAASPTTRTRPVTRSMGTGDTPGLEVPSSPLRKAKRARLCSSSSSDTSSRSFFDPTSQHRDWCPWVNITLGKESRENGGTEPDASAPAEPGWKAVLTILLAHKQSSQPAETDSMSLSEKSRKVFRIFRQWESLCSC
B4: VPS51 (other, human, UniProt Q9UID3 2-782, looked up)
chain: AAAAAAGPSPGSGPGDSPEGPEGEAPERRRKAHGMLKLYYGLSEGEAAGRPAGPDPLDPTDLNGAHFDPEVYLDKLRRECPLAQLMDSETDMVRQIRALDSDMQTLVYENYNKFISATDTIRKMKNDFRKMEDEMDRLATNMAVITDFSARISATLQDRHERITKLAGVHALLRKLQFLFELPSRLTKCVELGAYGQAVRYQGRAQAVLQQYQHLPSFRAIQDDCQVITARLAQQLRQRFREGGSGAPEQAECVELLLALGEPAEELCEEFLAHARGRLEKELRNLEAELGPSPPAPDVLEFTDHGGSGFVGGLCQVAAAYQELFAAQGPAGAEKLAAFARQLGSRYFALVERRLAQEQGGGDNSLLVRALDRFHRRLRAPGALLAAAGLADAATEIVERVARERLGHHLQGLRAAFLGCLTDVRQALAAPRVAGKEGPGLAELLANVASSILSHIKASLAAVHLFTAKEVSFSNKPYFRGEFCSQGVREGLIVGFVHSMCQTAQSFCDSPGEKGGATPPALLLLLSRLCLDYETATISYILTLTDEQFLVQDQFPVTPVSTLCAEARETARRLLTHYVKVQGLVISQMLRKSVETRDWLSTLEPRNVRAVMKRVVEDTTAIDVQVGLLYEEGVRKAQSSDSSKRTFSVYSSSRQQGRYAPSYTPSAPMDTNLLSNIQKLFSERIDVFSPVEFNKVSVLTGIIKISLKTLLECVRLRTFGRFGLQQVQVDCHFLQLYLWRFVADEELVHLLLDEVVASAALRCPDPVPMEPSVVEVICERG

Numbering of substitutions follows the chain as printed.

One assay has as its target T1, LZTR1 R810W-FLAG. Kind of assay: IP/MS, LZTR1 R810W-FLAG, U87. The essentials:
(§1)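 Extracted peptides in 3% acetonitrile/0.1% formic acid ran on a 50 cm C18 column into an Orbitrap Fusion, with MaxQuant identification and spectral counting.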
As for B1, the binding result is reported as “binds”.

On to B2, for which the binding result was “binds”.

With B3, the binding result is “binds”.

As for B4, the binding result is given as “binds”.

The next assay has as its target T2, LZTR1-FLAG. Kind of assay: IP/MS, LZTR1 wild type-FLAG, U87. The method in brief:
as §1
For B1, the binding result is reported as “binds”.

B2: the binding result was “binds”.

As for B3, the binding result was “binds”.

In the case of B4, the binding result was “binds”.
